Assay results from US11339381B2, “Nucleotide sequence encoding 9-lipoxygenase and recombinant constructs comprising the same” (Council of Scientific & Industrial Research, priority 2016, dated 2022).

Columns and labels:
[1] = system: ethylene treated mango fruits; test: In vivo transient over expression of 9-lipoxygenase by Agrobacterium mediated infiltration; design: species or system Alphonso mango (Mangifera indica); conditions: for δ-decalactone content compared to control tissue / δ-valerolactone content compared to control tissue: transient over expression, 2 days post infiltration, GC-FID
Procedure: The full length polynucleotide sequence (SEQ ID NO: 1) encoding 9-lipoxygenase (SEQ ID NO: 2) was cloned into the pBI121 plant expression vector between CaMV 35S promoter and GusA gene. Terminal primers were designed (SEQ ID NO: 10 and SEQ ID NO: 11) to clone genes at BamHI restriction site. The resulted correct oriented construct pBI121+Mi9LOX and pBI121 empty vector were transformed in the Agrobacterium GV3101 strain for transient expression studies. Separate Agrobacterium cultures (5 mL) were initiated from individual colonies in YEB medium having appropriate antibiotics and incubated overnight at 28° C. This culture was transferred to 50 mL induction medium (0.5% beef extract, 0.1% yeast extract, 0.5% peptone, 0.5% sucrose, 2 mM MgSO4, […], 10 mM MES, pH 5.6) having appropriate antibiotics, and again grown overnight. On the succeeding day, cultures were recovered by centrifugation, resuspended in infiltration medium (10 mM MgCl2, 10 mM MES, […], pH 5.6) till optical density reaches 1.0. This suspension was again incubated at 28° C. with gentle agitation for 2 hrs. Over expression studies for 9LOX was carried out by Agrobacterium mediated infiltration in ethylene treated mango fruits at 3DAH stage by using hypodermic syringe (FIG. 4a). Equal volumes of pBI121+Mi9LOX and pBI121 construct containing cultures were used for infiltration in two different halves of same mango fruit separated by fruit stone. Set of five distinct mango fruits were used for the overexpression study as data set. Infiltrated fruits were kept at 25° C. for 2 days in 12 hr dark and 12 hr light conditions, after 2 days; part from each fruit halves was checked by the Gus staining (Kapila et al. 1997; Spolaore et al. 2001) to confirm expression of Mi9LOX under 35S promoter along with GusA, remaining part of fruit pulp stored in −80° C. until used for the lactone analysis by gas chromatography.
Thus, ethylene treated mangoes were ideal for Agrobacterium infiltration studies as Agrobacterium infiltrated fruits cannot be incubated for more than 2 days due to the risk of bacterial and fungal infection owing to fruit injury during infiltration. Two days post infiltration, a part of fruit was checked by Gus staining (FIG. 4b) to confirm expression of GusA along with the Mi9LOX gene. The remaining tissue was used for the lactone content analysis. The lactones were analysed from control and test region of fruits from Mi9LOX sets. Total 8 lactones viz. γ-butyrolactone, δ-valerolactone, γ-hexalactone, δ-hexalactone, γ-octalactone, δ-octalactone, γ-decalactone and δ-decalactone were detected from all the tissues in GC-MS analysis.

[2] = system: recombinant 9-lipoxygenase (Mi9LOX); test: Recombinant Mi9LOX enzyme kinetics with LA and ALA as substrates (conjugated diene formation at 234 nm); assay type: biochemical, Mangifera indica; conditions: substrate of Mi9LOX
Procedure: The recombinant 9-lipoxygenase (Mi9LOX) activity assays was initially carried out in 250 μl final volume of 100 mM phosphate citrate buffer pH 7.0 at 30° C. containing 200 μM substrate (LA/ALA) and 0.005% Tween20. The activity was measured by formation of the conjugated diene at absorbance of 234 nm, applying an extinction coefficient 25000 M^-1 cm^-1 for both the substrates. […] at 0th min for each reaction is considered as blank and subtracted from […] for given time (t). Similar activity assays were also performed with protein expressed from empty vector for the confirmation of Mi9LOX activity. Optimum pH was determined by calculating activity at varied range of pH in phosphate citrate buffer at 30° C., whereas temperature optima was determined by calculating recombinant 9-lipoxygenase activity in phosphate citrate buffer pH 7 at various temperatures. The purified recombinant 9-lipoxygenase having amino acid sequence as set forth in SEQ ID NO: 2 used linoleic acid (LA) and alpha linolenic acid (ALA) as substrates. Activity of the recombinant 9-lipoxygenase protein was measured spectrophotometrically at 234 nm by the formation of conjugated dienes. For unit calculations, molar extinction coefficient for hydroperoxy linoleate and linolenate was considered 25000 cm^-1M^-1. […]

[3] = system: recombinant 9-lipoxygenase (Mi9LOX); test: pH and temperature activity profile of recombinant Mi9LOX; assay type: biochemical, Mangifera indica; conditions: for Optimum temperature: phosphate citrate buffer pH 7
Procedure: The recombinant 9-lipoxygenase (Mi9LOX) activity assays was initially carried out in 250 μl final volume of 100 mM phosphate citrate buffer pH 7.0 at 30° C. containing 200 μM substrate (LA/ALA) and 0.005% Tween20. The activity was measured by formation of the conjugated diene at absorbance of 234 nm, applying an extinction coefficient 25000 M^-1 cm^-1 for both the substrates. […] at 0th min for each reaction is considered as blank and subtracted from […] for given time (t). Similar activity assays were also performed with protein expressed from empty vector for the confirmation of Mi9LOX activity. Optimum pH was determined by calculating activity at varied range of pH in phosphate citrate buffer at 30° C., whereas temperature optima was determined by calculating recombinant 9-lipoxygenase activity in phosphate citrate buffer pH 7 at various temperatures. The purified recombinant 9-lipoxygenase having amino acid sequence as set forth in SEQ ID NO: 2 used linoleic acid (LA) and alpha linolenic acid (ALA) as substrates. Activity of the recombinant 9-lipoxygenase protein was measured spectrophotometrically at 234 nm by the formation of conjugated dienes. For unit calculations, molar extinction coefficient for hydroperoxy linoleate and linolenate was considered 25000 cm^-1M^-1. 9HpODE and 9HpOTrE products formed by the activity of Mi9LOX on LA and ALA respectively were confirmed by UPLC-HRMS. […] (FIG. 10(a)).

[4] = HRMS intermediate metabolite analysis

## SEQ ID NO: 1: 2526 bp cDNA polynucleotide encoding 9-lipoxygenase, cloned in pBI121 and agroinfiltrated for transient over expression
[1]
  δ-decalactone content compared to control tissue: 1.48 fold
  δ-valerolactone content compared to control tissue: 1.08 fold

## CCCCC/C=C\C/C=C\CCCCCCCC(=O)O [LA, linoleic acid]
[2]
  Km: 354 µM
  Vmax: LA- 611.11 ± 55.55 μM min^−1mg^−1

B1: Mi9LOX: Recombinant Mangifera indica 9-lipoxygenase from Alphonso mango, 841 aa, SEQ ID NO: 2 (protein)
chain: MGTVVLMKKNFLDFNDLSASVIDRVDELVGKRVSLQLVSAFNSDPTASNGLQGKVGEPAHLEEWITTITPLVAEESTFKVTFDWDEQIGVPGAFIIKNNHHSGFYLKSLTLEDVPNQGRIHFVCNSWVYPAKRYKKDRVFFTNKTYLPGEMPAPLQYYREQELLNLRGDGTGELQEWDRVYDYAYYNDLGDPDNGKPRPVLGGSTEYPYPRRGRTGRPPAKTDPETESRLPLLTSLNIYVPRDERFGHIKMSDFLGYALKSISQFIEPALESVFDSTPNEFDNFAQIYKLYDEGIQLPNDHFLDDIRNNIPLELLKEIFPTNEDNLFEFPTPQVIQGDRSAWRTDEEFAREMLAGPNPVIIRRVEEFPPRSKLDPELYGDQDSKITKQHIESYLDGLTVEQAIEKNELFILDHHDSLMTYLRRINTTSTKTYASRTILFLKEDGTLKPLAIELSRPHPDGDQYGAISNVYTPSEDEVEGSIWQLAKAYVAVNDSGVHQLISHWLKTHAAIEPFVIATNRQLSVLHPIYKLLQPHFRDTMNINAFARQIVINAGGILETTVFPAKYAMEMSSAIYKDWTFPDQALPEDLKNRGMAVEDPNSPHGLRLLIADYPYAVDGLEIWFAIKNWVKDYCYFYYKSDEMMQKDSGLQSWWKELREEGHGDKKDEPWWPKMQNREELIEACTIIIWIASALHAAVNFGQYPYAGFLPNRPTMSRRFMPEKGTPDYDELESNFDKVFLKTITAQRQTLLGIALIETLSRHSSDEMYLGQRDTPEWTSDKIPLQAFEDFGKKLGDIEVRIITRNHDNMLKNRVGPVNMPYTLLYPTSEGGLTGKGIPNSVSI
modifications: Protein sequence of 7- Dehydrocholestrol reductase (7-DHCR)
[3]; at 35° C.
  reduction in the activity: 75%
[3]; at 50° C.
  reduced activity: 69%
[3]; at pH 5 and 9
  reduction in the activity: 40%
[3]; phosphate citrate buffer at 30° C.
  Optimum pH: 6.5
[3]
  Optimum temperature: 37 °C
[3]; listed as recombinant 9-lipoxygenase
  Optimum temperature: 35 °C
[1]; [4]
  9HpODE in control and test tissues: not detected
  increase in 9HpOTrE upon Mi9LOX over expression: 1.9 folds
[1]
  δ-decalactone content compared to control tissue: 1.48 fold
  δ-valerolactone content compared to control tissue: 1.08 fold
[1]; upon Agrobacterium infiltration
  increase of Mi9LOX transcripts in test tissues as compared to the control tissues: 1.73
